Experiment [1] has as its target T1, VEGFR2 (KDR) on HUVECs (human, UniProt P35968 20-1356).
T1 construct: Endogenous receptor on HUVECs; also called KDR (VEGFR-2)
As to the kind of experiment: FACS on HUVECs, 5 nM, anti-human IgG-PE secondary; secondary only 65.7. Here is the method: To determine the binding activity of the fusion protein to HUVECs, FACS analysis was performed using the fusion protein and control antibodies (6A6, 6A6×DLL4, D4, Minod-Fc).
Specifically, HUVECs (LONZA, Cat No. C2519A) were cultured at 37° C. and 5% CO₂ using a plate coated with 2% gelatin and VascuLife medium complete kit (Lifeline Cell Technology, Cat No. #LCT-LL-0005). The cells were prepared at a concentration of 2×10⁷ cells/ml in FACS buffer (0.5% FBS, 0.05% sodium azide in PBS) and dispensed at 50 μl into each of FACS tubes. 100 μl of each antibody at a concentration of 5 nM was mixed in the FACS tube, followed by reaction at 4° C. for 30 minutes. After completion of reaction, 2 ml of FACS buffer was added to each tube, followed by centrifugation at 1500 rpm for 3 minutes. The supernatant was removed, the cells were resuspended, and 100 μl of anti-human IgG-PE antibody (1:200, Bethyl, #A80-248PE) was added, followed by reaction at 4° C. for 20 minutes. 2 ml of FACS buffer was added to each FACS tube, followed by centrifugation at 1500 rpm for 3 minutes. The separated supernatant was removed, the cells were resuspended in 200 μl of FACS buffer, and the binding activity was analyzed using FACS (Beckton Dickinson, Lyric).

The target of experiment [2] is T2, hDLL4 expressed on HEK293 cells (human, UniProt Q9NR61 27-685).
T2 construct: whole, on cells; also called DLL4-overexpressed HEK293 cells
The experiment is described as follows: FACS on hDLL4-overexpressing HEK293 cells (293-DLL4), 5 nM, anti-human IgG-PE secondary; secondary only 82.0. As to the method: Specifically, the pcDNA-hDLL4 vector synthesized by GeneArt was transfected into HEK293 cells using Lipofectamin™ 2000 (Invitrogen #1168-019, USA), and neomycin (Gibco #10131, 50 mg/ml) was added for selection. Then, all grown cells were collected and cultured in a pool state. Then, 23 types of single colonies were obtained by culture using a limiting dilution method, and among the single colonies, one type of cell line that highly overexpressed hDLL4 was selected and tested. The selected cells were prepared to a concentration of 2×10⁷ cells/ml in FACS buffer (0.5% FBS, 0.05% sodium azide in PBS) and dispensed at 50 μl into each of FACS tubes. 5 nM fusion protein and control antibodies (6A6, 6A6×DLL4, D4, D4×DLL4, Minod-Fc) were added in 100 μl to each of the FACS tubes containing the cells, followed by reaction at 4° C. for 30 minutes. After completion of reaction, 2 ml of FACS buffer was added to each tube, followed by centrifugation at 1500 rpm for 3 minutes. The supernatant was removed, the cells were well resuspended, and then 100 μl of anti-human IgG-PE antibody (1:200, […], #A80-248PE) was added, followed by reaction at 4° C. for 20 minutes. After completion of reaction, 2 ml of FACS buffer was added to each FACS tube, followed by centrifugation at 1500 rpm for 3 minutes. The separated supernatant was removed, the cells were resuspended in 200 μl of FACS buffer, and the binding activity was analyzed using FACS (Beckton Dickinson, Lyric).

Experiment [3] addresses T3, KDR1-3 domains (UniProt P35968 20-327, limits assumed).
T3 construct: domain: KDR1-3 domains; Immobilized on the Octet biosensor; also called KDR D1-D3; KDR1-3 domain-Fc (as used for panning)
The experiment is described as follows: Octet BLI, KDR1-3 domains on biosensor, scFv in solution. As to the method: The binding ability of the selected antibodies to the antigen was measured using Octet (Fortebio). To this end, KDR1-3 domains were immobilized on a biosensor, candidate antibodies expressed in scFv form were added and bound, and the dissociation rate constant was measured. The results of measurement of dissociation rate constant for the five selected optimized clones [Table 1] and amino acid sequences [Tables 2 and 3] are shown below.
(In BLI a coated tip is dipped into the sample, and binding shifts an interference pattern.)

In experiment [4] the target is T4, hKDR-ECD (human, UniProt P35968 20-764).
T4 construct: extracellular domain; Analyte in SPR; also called human KDR (VEGFR-2) extracellular domain
As to the kind of experiment: SPR Biacore T200, fusion protein captured on Protein A chip, antigen as analyte, 1:1 model. As to the method:
(§1) The binding ability of the selected fusion protein to the antigen was measured using SPR (Biacore T200, Cytiva). The fusion protein was captured and analyzed using the antigen protein as an analyte. Using a Protein A chip, the fusion protein was immobilized on the surface according to the manufacturer's instructions. The fusion protein on the sensor chip was diluted with PBS-T running buffer to a concentration of 5 μg/ml and injected at a flow rate of 10 μl/min to reach about 200 RU. The antigen was diluted with PBS-T running buffer by concentration and injected at a flow rate of 30 μl/min for 4 minutes, and the dissociation time was set to 10 minutes. To remove the fusion protein bound every cycle, a regeneration solution (10 mM glycine-HCl, pH 1.5) was injected at a flow rate of 30 μl/min for 1 minute. The experimental results were calculated using the 1:1 binding model of BIA evaluation software version 1.0.
On the technique in general: SPR reads the build-up and loss of mass on a sensor chip optically.

The target of experiment [5] is T5, hDLL4 (human, UniProt Q9NR61 27-524, limits assumed).
T5 construct: Analyte in SPR; also called human delta-like ligand 4 (soluble antigen protein)
Described as above. As to the method: as §1

T3 sequence (P35968 20-327 limits assumed): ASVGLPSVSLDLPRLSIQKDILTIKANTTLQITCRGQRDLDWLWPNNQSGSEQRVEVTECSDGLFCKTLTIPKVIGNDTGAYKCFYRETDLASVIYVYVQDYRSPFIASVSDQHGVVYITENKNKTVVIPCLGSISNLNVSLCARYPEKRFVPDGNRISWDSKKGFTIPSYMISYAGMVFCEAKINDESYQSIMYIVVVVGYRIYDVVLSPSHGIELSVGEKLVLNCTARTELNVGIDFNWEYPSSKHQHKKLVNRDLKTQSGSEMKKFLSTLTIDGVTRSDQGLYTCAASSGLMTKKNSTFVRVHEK
T4 sequence (P35968 20-764): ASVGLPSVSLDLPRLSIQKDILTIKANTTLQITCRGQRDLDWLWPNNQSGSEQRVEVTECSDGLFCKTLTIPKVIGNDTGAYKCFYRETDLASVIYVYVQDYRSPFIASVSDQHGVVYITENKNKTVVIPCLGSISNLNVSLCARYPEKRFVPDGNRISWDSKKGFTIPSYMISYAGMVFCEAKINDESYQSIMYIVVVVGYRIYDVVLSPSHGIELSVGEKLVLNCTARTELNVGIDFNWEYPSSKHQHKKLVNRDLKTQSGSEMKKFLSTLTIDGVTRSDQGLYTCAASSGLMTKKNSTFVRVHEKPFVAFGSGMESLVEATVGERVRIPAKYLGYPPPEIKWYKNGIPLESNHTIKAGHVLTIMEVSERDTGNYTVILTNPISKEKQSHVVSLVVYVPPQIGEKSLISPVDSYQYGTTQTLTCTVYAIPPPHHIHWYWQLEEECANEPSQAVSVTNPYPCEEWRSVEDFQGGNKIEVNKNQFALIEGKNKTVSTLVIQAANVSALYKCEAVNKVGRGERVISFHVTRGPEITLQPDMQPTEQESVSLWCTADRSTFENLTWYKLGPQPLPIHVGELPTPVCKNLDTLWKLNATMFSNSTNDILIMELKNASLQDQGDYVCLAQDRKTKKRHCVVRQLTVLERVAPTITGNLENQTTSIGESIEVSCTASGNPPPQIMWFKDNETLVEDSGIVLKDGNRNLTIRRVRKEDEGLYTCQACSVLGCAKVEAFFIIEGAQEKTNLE
T1 sequence (P35968 20-1356 limits assumed): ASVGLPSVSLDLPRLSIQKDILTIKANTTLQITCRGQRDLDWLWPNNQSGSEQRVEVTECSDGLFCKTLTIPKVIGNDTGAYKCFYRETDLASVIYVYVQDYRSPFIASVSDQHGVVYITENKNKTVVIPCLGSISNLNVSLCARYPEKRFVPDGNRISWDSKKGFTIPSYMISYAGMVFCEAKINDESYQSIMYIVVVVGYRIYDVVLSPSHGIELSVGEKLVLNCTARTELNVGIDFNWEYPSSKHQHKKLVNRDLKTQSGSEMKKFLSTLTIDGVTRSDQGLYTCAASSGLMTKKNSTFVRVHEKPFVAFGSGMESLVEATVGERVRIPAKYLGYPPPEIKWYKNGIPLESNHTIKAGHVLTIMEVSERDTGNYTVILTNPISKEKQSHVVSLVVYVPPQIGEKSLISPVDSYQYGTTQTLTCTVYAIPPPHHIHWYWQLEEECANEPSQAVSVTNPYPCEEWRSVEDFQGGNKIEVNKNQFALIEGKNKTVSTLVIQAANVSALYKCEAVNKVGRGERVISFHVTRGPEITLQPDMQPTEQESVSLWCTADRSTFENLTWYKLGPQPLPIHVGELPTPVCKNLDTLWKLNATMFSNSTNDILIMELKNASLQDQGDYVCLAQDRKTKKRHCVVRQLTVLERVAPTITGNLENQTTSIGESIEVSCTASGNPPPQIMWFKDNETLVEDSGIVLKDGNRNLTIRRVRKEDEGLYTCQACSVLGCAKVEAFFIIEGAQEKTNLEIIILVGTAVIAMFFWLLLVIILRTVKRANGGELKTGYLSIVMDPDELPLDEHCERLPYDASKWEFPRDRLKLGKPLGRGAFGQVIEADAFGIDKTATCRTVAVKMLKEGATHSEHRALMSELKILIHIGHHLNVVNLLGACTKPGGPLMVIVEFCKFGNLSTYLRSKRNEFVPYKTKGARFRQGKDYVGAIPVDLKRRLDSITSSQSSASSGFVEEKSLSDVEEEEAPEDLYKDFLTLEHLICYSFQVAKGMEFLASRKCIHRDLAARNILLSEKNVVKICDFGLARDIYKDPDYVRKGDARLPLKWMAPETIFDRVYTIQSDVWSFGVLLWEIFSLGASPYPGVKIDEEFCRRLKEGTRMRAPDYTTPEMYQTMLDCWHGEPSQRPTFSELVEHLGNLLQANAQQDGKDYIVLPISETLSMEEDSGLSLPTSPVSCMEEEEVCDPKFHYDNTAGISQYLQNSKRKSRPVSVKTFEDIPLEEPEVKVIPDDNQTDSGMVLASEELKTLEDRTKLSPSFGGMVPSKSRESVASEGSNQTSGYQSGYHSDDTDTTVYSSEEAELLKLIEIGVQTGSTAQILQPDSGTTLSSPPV
T2 sequence (Q9NR61 27-685): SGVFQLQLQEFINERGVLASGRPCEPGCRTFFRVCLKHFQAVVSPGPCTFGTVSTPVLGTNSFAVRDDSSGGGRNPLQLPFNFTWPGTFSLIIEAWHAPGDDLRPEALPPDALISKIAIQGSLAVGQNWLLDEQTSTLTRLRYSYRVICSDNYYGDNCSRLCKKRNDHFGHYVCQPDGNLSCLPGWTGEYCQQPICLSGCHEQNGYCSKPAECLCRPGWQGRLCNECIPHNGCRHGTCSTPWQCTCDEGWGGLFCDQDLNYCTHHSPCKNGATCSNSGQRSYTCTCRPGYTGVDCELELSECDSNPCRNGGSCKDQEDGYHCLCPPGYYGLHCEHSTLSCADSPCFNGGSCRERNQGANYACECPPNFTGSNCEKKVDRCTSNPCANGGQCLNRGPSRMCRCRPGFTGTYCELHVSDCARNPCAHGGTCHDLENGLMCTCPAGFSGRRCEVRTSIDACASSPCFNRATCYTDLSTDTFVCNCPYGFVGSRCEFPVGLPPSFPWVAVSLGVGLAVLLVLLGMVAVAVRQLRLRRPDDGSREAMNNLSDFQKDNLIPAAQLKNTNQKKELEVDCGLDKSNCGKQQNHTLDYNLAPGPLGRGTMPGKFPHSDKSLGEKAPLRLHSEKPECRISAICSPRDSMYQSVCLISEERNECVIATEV
T5 sequence (Q9NR61 27-524 limits assumed): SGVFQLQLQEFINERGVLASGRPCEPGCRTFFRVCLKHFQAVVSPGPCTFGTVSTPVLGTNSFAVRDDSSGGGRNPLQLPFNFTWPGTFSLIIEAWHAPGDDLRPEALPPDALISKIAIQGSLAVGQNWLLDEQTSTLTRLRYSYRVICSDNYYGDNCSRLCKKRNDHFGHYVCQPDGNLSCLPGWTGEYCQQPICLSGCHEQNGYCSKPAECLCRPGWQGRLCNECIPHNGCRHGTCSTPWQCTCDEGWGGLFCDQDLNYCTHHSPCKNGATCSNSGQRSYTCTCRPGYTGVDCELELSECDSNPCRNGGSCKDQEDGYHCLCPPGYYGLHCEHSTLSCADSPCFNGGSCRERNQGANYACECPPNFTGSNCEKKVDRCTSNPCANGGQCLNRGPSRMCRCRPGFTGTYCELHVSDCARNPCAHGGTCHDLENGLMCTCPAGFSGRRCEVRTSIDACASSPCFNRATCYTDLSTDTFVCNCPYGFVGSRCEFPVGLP

B1: D4 (IgG1 form) (antibody, V domains shown)
VH: EVQLVESGGGLVQPGGSLRLSCAASGYTFSSYWMSWVRQAPGKGLEWVSEINPGNGHTNYNEKFKSRFTISRDKSKNTLYLQMNSLRAEDTAVYYCARHWGPSLTSPFDYWGQGTLVTVSS
VL: DIQMTQSPSSLSASVGDRVTITCRADNLGDVNVHWYQQKPGKAPKLLIYYDADRPSGVPSRFSGSNSGNDATLTISSLQPEDFATYYCQAPTNNDPYTFGQGTKVEIKR
notes: also called optimized antibody D4
For B1, the “Geometric Mean : PE-A” value was found to be 456 in experiment [1] and 71.1 in experiment [2].

B2: D4 (scFv form) (scFv, V domains shown)
VH: EVQLVESGGGLVQPGGSLRLSCAASGYTFSSYWMSWVRQAPGKGLEWVSEINPGNGHTNYNEKFKSRFTISRDKSKNTLYLQMNSLRAEDTAVYYCARHWGPSLTSPFDYWGQGTLVTVSS
VL: DIQMTQSPSSLSASVGDRVTITCRADNLGDVNVHWYQQKPGKAPKLLIYYDADRPSGVPSRFSGSNSGNDATLTISSLQPEDFATYYCQAPTNNDPYTFGQGTKVEIKR
notes: Tested as scFv
As for B2, in experiment [3], the koff (as a rule, the rate constant with which the complex falls apart) was determined as 0.000165 s⁻¹.

B3: D3 (scFv form) (scFv, V domains shown)
VH: EVQLVESGGGLVQPGGSLRLSCAASGYTFSSYWMSWVRQAPGKGLEWVSEINPGNGHTNYNEKFKSRFTISRDKSKNTLYLQMNSLRAEDTAVYYCARHWGPSLTSPFDYWGQGTLVTVSS
VL: DIQMTQSPSSLSASVGDRVTITCRADNLGDVNVHWYQQKPGKAPKLLIYYDADRPSGVPSRFSGSNSGNDATLTISSLQPEDFATYYCQAPTKNVPYTFGQGTKVEIKR
notes: Tested as scFv
In experiment [3], B3 showed a koff of 0.00015 s⁻¹.

B4: A5 (scFv form) (scFv, V domains shown)
VH: EVQLVESGGGLVQPGGSLRLSCAASGYTFSSYWMSWVRQAPGKGLEWVSEINPGNGHTNYNEKFKSRFTISRDKSKNTLYLQMNSLRAEDTAVYYCARHWGPSLTSPFDYWGQGTLVTVSS
VL: DIQMTQSPSSLSASVGDRVTITCRADNLGDVNVHWYQQKPGKAPKLLIYYDADRPSGVPSRFSGSNSGNDATLTISSLQPEDFATYYCQAPTTHLPYTFGQGTKVEIKR
notes: Tested as scFv
Regarding B4, in experiment [3], the koff amounted to 0.000187 s⁻¹.

B5: LH-E7 (scFv form) (scFv, V domains shown)
VH: EVQLVESGGGLVQPGGSLRLSCAASGYTFSSYWMSWVRQAPGKGLEWVSEINPGNGHTNYNEKFKSRFTISRDKSKNTLYLQMNSLRAEDTAVYYCARHWGPSLTSPFDYWGQGTLVTVSS
VL: DIQMTQSPSSLSASVGDRVTITCRADNLGDVNVHWYQQKPGKAPKLLIYYDADRPSGVPSRFSGSNSGNDATLTISSLQPEDFATYYCQAPTRIAPYTFGQGTKVEIKR
notes: Tested as scFv
In turn, B5 displayed a koff in experiment [3] of 0.000111 s⁻¹.

B6: LHL-G1 (scFv form) (scFv, V domains shown)
VH: EVQLVESGGGLVQPGGSLRLSCAASGYTFSSYWMSWVRQAPGKGLEWVSEINPGNGHTNYNEKFKSRFTISRDKSKNTLYLQMNSLRAEDTAVYYCARSYRPSLTSPFDFWGQGTLVTVSS
VL: DIQMTQSPSSLSASVGDRVTITCRADNLGDVNVHWYQQKPGKAPKLLIYYDADRPSGVPSRFSGSNSGNDATLTISSLQPEDFATYYCQAPTTNEPYTFGQGTKVEIKR
notes: Tested as scFv
Consider B6, for which the koff in experiment [3] worked out at 0.000239 s⁻¹.

B7: 6A6×DLL4 (bispecific antibody)
VH: QMQLVQSGAEVKKPGASVKLSCKASGYTFSSYWMHWVRQAPGQRLEWMGEINPGNGHTNYNEKFKSRVTITVDKSASTAYMELSSLRSEDTAVYYCAKIWGPSLTSPFDYWGQGTLVTVSS
Notch1-VL: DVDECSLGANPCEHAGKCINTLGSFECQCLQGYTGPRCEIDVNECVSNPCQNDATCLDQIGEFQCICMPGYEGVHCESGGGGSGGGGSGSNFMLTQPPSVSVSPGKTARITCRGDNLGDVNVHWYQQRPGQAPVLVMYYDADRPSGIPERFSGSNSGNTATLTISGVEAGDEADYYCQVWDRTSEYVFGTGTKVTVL
notes: Comparative fusion protein with a 6A6 backbone; it was captured on a Protein A chip; also called 6A6xDLL4
For the molecule B7, the “Geometric Mean : PE-A” value in experiment [1] is 380. Moreover, in experiment [4], binding was characterised by a dissociation constant (Kd) of 4.46 nM; the Pmax was found to be 502; the koff turned out to be 0.000837 s⁻¹; the kon (in general, the rate constant with which the complex forms) came out at 188000 M⁻¹ s⁻¹. In experiment [5], this molecule returned a Pmax of 74.9 and a kon of 45800 M⁻¹ s⁻¹. Moreover, the “Geometric Mean : PE-A” value in experiment [2] came to 968.

B8: 6A6 (control antibody) (antibody, V domains shown)
VH: QMQLVQSGAEVKKPGASVKLSCKASGYTFSSYWMHWVRQAPGQRLEWMGEINPGNGHTNYNEKFKSRVTITVDKSASTAYMELSSLRSEDTAVYYCAKIWGPSLTSPFDYWGQGTLVTVSS
VL: SNFMLTQPPSVSVSPGKTARITCRGDNLGDVNVHWYQQRPGQAPVLVMYYDADRPSGIPERFSGSNSGNTATLTISGVEAGDEADYYCQVWDRTSEYVFGTGTKVTVLG
As to B8, the “Geometric Mean : PE-A” value in experiment [1] turned out to be 352; in experiment [2] it was 84.6.

Source of the values: patent US20250179192A1 (PHARMABCINE, published 2025).
